B1: STEAP1 (parent)
chain: WMLTRKQFGLLSFFFAVLHAIYSL

Variants of: B1
Assay: protein stability index of a GFP-peptide fusion (GPS, HEK-293T) (PSI 1-6); higher = more stable
Conditions: c terminus: a fixed tail appended
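Further: lentivirally expressed fusions sorted by FACS into six bins by GFP to DsRed ratio, PSI derived from sequencing read proportions per bin multiplied by bin number.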

Variant	protein stability index
WMLTRFQFGLLSFFFAVLHAIYSL [K6F]	1.79
WMLTRCQFGLLSFFFAVLHAIYSL [K6C]	2.16
WMLTRRQFGLLSFFFAVLHAIYSL [K6R]	1.88
WMLTRDQFGLLSFFFAVLHAIYSL [K6D]	1.18
WMLTRLQFGLLSFFFAVLHAIYSL [K6L]	3.1
WMLTRHQFGLLSFFFAVLHAIYSL [K6H]	3.26
WMLTRKQFGSLSFFFAVLHAIYSL [L10S]	1.53
WMLTRKQFGMLSFFFAVLHAIYSL [L10M]	1.83
WMLTRKQFGNLSFFFAVLHAIYSL [L10N]	1.99
WMLTRKQFGDLSFFFAVLHAIYSL [L10D]	2.52
WMLTRKQFGYLSFFFAVLHAIYSL [L10Y]	1.66
WMLTRKQFGHLSFFFAVLHAIYSL [L10H]	2.09
WMLTRKQFGLLSFFFAVLHAIYSG [L24G]	2.74
WMLTRKQFGLLSFFFAVLHAIYSE [L24E]	1.4
WMLTRKQFGLLSFFFAVLHAIYSV [L24V]	2.27
WMLTRKQFGLLSFFFAVLHAIYST [L24T]	2.26
WMLTRKQFGLLSFFFAVLHAIYSF [L24F]	1.46
WMLTRKQFGLLSFFFAVLHAIYSQ [L24Q]	1.94
WMLTRKQFGLLSFFFAVLHAIYSC [L24C]	2
WMLTRKQFGLLSFFFAVLHAIYSM [L24M]	1.97
WMLTRKQFGLLSFFFAVLHAIYSH [L24H]	1.83
WMLTRKQFGLLSFFFAVLHAIYSS [L24S]	2.14
WMLTRKQFGLLSFHFAVLHAIYSL [F14H]	2
WMLTRKQFGLLSFGFAVLHAIYSL [F14G]	2.11

Variant	protein stability index
WMLTRKQFGLLSFVFAVLHAIYSL [F14V]	1.69
WMLTRKQFGLLSFSFAVLHAIYSL [F14S]	2.82
WMLTRKQFGLLSFAFAVLHAIYSL [F14A]	3.09
WMLTRKQFGLLSFDFAVLHAIYSL [F14D]	3.4
WMLTRKQFGLLSFLFAVLHAIYSL [F14L]	1.73
WMLTRKQFGLLSFTFAVLHAIYSL [F14T]	2.46
WMLTRKQFGLLSFFFAVLHAMYSL [I21M]	1.66
WMLTRKQFGLLSFFFAVLHAYYSL [I21Y]	1.95
WMLTRKQFGLLSFFFAVLHAKYSL [I21K]	2.41
WMLTRKQFGLLSFFFAVLHACYSL [I21C]	2.21
WMLTRKQFGLLSFFFAVLHAAYSL [I21A]	3.66
WMLTRKQFGLLSFFFAVLHAVYSL [I21V]	2.18
WMLTRKQFGLLSFFFAVLHAHYSL [I21H]	3.26
WMLTRKQFGLLSFFFAVLHAPYSL [I21P]	3.02
WMLTRKQFGLLSFFFAVLHANYSL [I21N]	2.81
WMLTRKQFGLLSFFFAVLHATYSL [I21T]	1.05
WMLTRKQFGLLSFFFAVQHAIYSL [L18Q]	2.82
WMLTRKQFGLLSFFFAVWHAIYSL [L18W]	1.74
WMLTRKQFGLLSFFFAVCHAIYSL [L18C]	2.75
WMLTRKQFGLLSFFFAVHHAIYSL [L18H]	2.03
WMLTRKQFGLLSFFFAVGHAIYSL [L18G]	2.66
WMLTRKQFGLLSFFFAVVHAIYSL [L18V]	1.66
WMLTRKQFGLLSFFFAVKHAIYSL [L18K]	3.01
WMLTRKQFGLLSFFFAVLHAIASL [Y22A]	1.58

Variant	protein stability index
WMLTRKQFGLLSFFFAVLHAIMSL [Y22M]	2.45
WMLTRKQFGLLSFFFAVLHAIHSL [Y22H]	2.1
WMLTRKQFGLLSFFFAVLHAIDSL [Y22D]	2.97
WMLTRKQFGLLSFFFAVLHAIESL [Y22E]	2.93
WMLTRKQFGLLSFFFAVLHAIKSL [Y22K]	2.29
WMLTRKQFGLLSFFFAVLHAISSL [Y22S]	1.63
WMNTRKQFGLLSFFFAVLHAIYSL [L3N]	2.1
WMCTRKQFGLLSFFFAVLHAIYSL [L3C]	3.54
WMETRKQFGLLSFFFAVLHAIYSL [L3E]	1.57
WMWTRKQFGLLSFFFAVLHAIYSL [L3W]	1.73
WMFTRKQFGLLSFFFAVLHAIYSL [L3F]	2.74
WMVTRKQFGLLSFFFAVLHAIYSL [L3V]	1.52
WMKTRKQFGLLSFFFAVLHAIYSL [L3K]	1.71
WMLTRKQFGLLSFFFAVLKAIYSL [H19K]	2.16
WMLTRKQFGLLSFFFAVLFAIYSL [H19F]	2.76
WMLTRKQFGLLSFFFAVLCAIYSL [H19C]	2.94
WMLTRKQFGLLSFFFAVLNAIYSL [H19N]	1.89
WMLTRKQFGLLSFFFAVLEAIYSL [H19E]	1.65
WMLERKQFGLLSFFFAVLHAIYSL [T4E]	1.1
WMLVRKQFGLLSFFFAVLHAIYSL [T4V]	1.92
WMLFRKQFGLLSFFFAVLHAIYSL [T4F]	2.31
WMLCRKQFGLLSFFFAVLHAIYSL [T4C]	1.8
WMLNRKQFGLLSFFFAVLHAIYSL [T4N]	1.99
WMLDRKQFGLLSFFFAVLHAIYSL [T4D]	1.66

Variant	protein stability index
WMLQRKQFGLLSFFFAVLHAIYSL [T4Q]	2.35
WMLMRKQFGLLSFFFAVLHAIYSL [T4M]	1.69
WMLLRKQFGLLSFFFAVLHAIYSL [T4L]	2.77
WMLTRKQFGLFSFFFAVLHAIYSL [L11F]	1.72
WMLTRKQFGLYSFFFAVLHAIYSL [L11Y]	2.31
WMLTRKQFGLQSFFFAVLHAIYSL [L11Q]	1.67
WMLTRKQFGLGSFFFAVLHAIYSL [L11G]	1.96
WMLTRKQFGLPSFFFAVLHAIYSL [L11P]	1.57
WMLTRKQFGLCSFFFAVLHAIYSL [L11C]	1.48
WMLTRKQFGLDSFFFAVLHAIYSL [L11D]	2.23
WMLTRKQFGLLSFFFCVLHAIYSL [A16C]	1.69
WMLTRKQFGLLSFFFFVLHAIYSL [A16F]	1.93
WMLTRKQFGLLSFFFEVLHAIYSL [A16E]	1.67
WMLTRKQFGLLSFFFPVLHAIYSL [A16P]	1.59
WMLTRKQFGLLSFFFGVLHAIYSL [A16G]	1.77
WMLTRKQFGLLSFFFHVLHAIYSL [A16H]	1.76
WMLTRKQFGLLSFFFNVLHAIYSL [A16N]	1.88
WMLTRKQFGLLSFFFLVLHAIYSL [A16L]	1.64
WMLTRKQFGLLSFFFTVLHAIYSL [A16T]	2.63
WMLTRKQFGLLSKFFAVLHAIYSL [F13K]	2.38
WMLTRKQFGLLSIFFAVLHAIYSL [F13I]	2.11
WMLTRKQFGLLSYFFAVLHAIYSL [F13Y]	1.95
